The results in this text go back to US20140030267A1, “COMPOSITIONS, METHODS AND KITS RELATING TO RESISTIN” (The Trustees of the University of Pennsylvania, priority 1999, published 2014).

One assay relates to resistin gene expression. Nature of the assay: Northern blot of resistin gene expression in 3T3-L1 adipocytes treated with TZD. The following applies: rosiglitazone 1 μM. Format: cell-based, murine. The procedure:
3T3-L1 cells were differentiated to adipocytes then treated with the indicated vehicles (ethanol [EtOH] or dimethylsulfoxide [DMSO]) or with the indicated TZD compounds (each at 1 μM). Then, RNA was prepared and analyzed using Northern blot analysis using resistin cDNA probe.
FIG. 6 is an image of a Northern blot depicting the time course of resistin expression down-regulation by rosiglitazone. BRL49653 (rosiglitazone) was used at a concentration of 1 μM in DMSO. The Northern blot was probed using mouse resistin cDNA. The position of resistin mRNA is indicated in the image. 3T3-L1 cells were differentiated to adipocytes then treated with rosiglitazone (1 μM) for the indicated times (in hours) before RNA was isolated. Resistin expression was examined using Northern analysis using resistin cDNA probe.
To clone and identify resistin, 3T3-L1 cells were differentiated into adipocytes using a standard protocol using differentiation medium (DM) containing dexamethasone, insulin, isobutylmethylxanthine, and fetal bovine serum as described in Green and Kehinde (1975, Cell 5:19-27) and Green and Meuth (1974, Cell 3:127-133). On the seventh day of culture, the cells were treated with either dimethylsulfoxide (DMSO) or 1 micromolar BRL49653 (rosiglitazone) in DMSO. […]

The nature of assay [1]: Glucose tolerance test in mice after administration of resistin. Format: in vivo. As to the method: Prior to injection into animals, 30 ml of conditioned media harvested from recombinant 293T cells expressing resistin was concentrated into 5 ml using an Ultrafree-15 centrifugal filter device (Millipore).
Male and female mice, 9 weeks of age, were administered 200 microliters of concentrated conditioned media intraperitonially just prior to the dark cycle. Mice were consequently fasted overnight. Twelve hours later, a second intraperitional dose of concentrated CM was administered to each animal. Two hours after the second administration, the mice were given a glucose challenge of 10 microliters per gram of body weight of 20% glucose in PBS solution. Blood glucose levels were determined using a Fast-Take glucometer (Johnson & Johnson) at thirty minute intervals for a two hour period.
The blood glucose levels of mice dosed with resistin are depicted using dotted lines in FIG. 21, and control glucose values are indicated using solid lines (FIG. 21). More specifically, eight female mice (4 per group) were treated with either vehicle (solid lines) or resistin preparation (dashed lines) prepared using conditioned medium obtained from recombinant 293T cells as described elsewhere herein.

Take `CN(CCOc1ccc(CC2SC(=O)NC2=O)cc1)c1ccccn1` (stereo not drawn) [rosiglitazone]: the “time after exposure at which the effect on resistin expression is maximal” value with resistin gene expression is 48 h.

B1: resistin: mouse resistin (SEQ ID NO:2) in concentrated conditioned medium of recombinant 293T cells expressing resistin (protein)
chain: SSMPLCPIDEAIDKKIKQDFNSLFPNAIKNIGLNCWTVSSRGKLASCPEGTAVLSCSCGSACGSWDIRGGKVCHCQCARIDWTAARCCKLQVAS
Regarding B1, the “blood glucose 30 minutes after glucose administration” value in assay [1] (female mice, intraperitoneal resistin preparation, 30 minutes after glucose challenge) is 395.+−0.67 mg/dl. Also, the glucose tolerance entry in assay [1] (mice, resistin preparation) is reported as “reducing glucose tolerance to diabetic levels”.
